± gives the uncertainty stated by the source.
Experiment: protein stability index of a GFP-peptide fusion (yeast GPS) (PSI 1-4); higher = more stable; sorted into four equal gates, so the index is relative within each strain
Outline: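 The protein stability index combines read frequencies across sorting gates, each weighted by its gate number and then summed. To obtain those frequencies, a pooled yeast library of GFP fusions to tiled 17-residue yeast protein peptides, on a plasmid also expressing Cherry, was grown to mid-log phase in leucine-free medium. The cells were sorted into four equal gates by GFP/Cherry ratio before plasmid amplification by PCR and Illumina sequencing.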

Row | Sequence | protein stability index (doa10∆) | protein stability index (pdr5∆) | protein stability index (san1∆) | protein stability index (ubr1∆)
1 | GEKKVGSNGELFGGRHY [SWP82] | 3.13 ± 0.2 | 3.26 ± 0.13 | 3.73 ± 0.12 | 
2 | RHTTGTGRMRYLKHVSR [RPL37A] | 3.14 ± 0.11 | 3.26 ± 0.081 | 3.55 ± 0.081 | 3.1 ± 0.11
3 | KTLNLFKQIKSADCELL [RPO31] | 1.22 ± 0.21 | 1.06 ± 0.035 | 1.23 ± 0.29 | 1.05 ± 0.094
4 | RLLEKSELPDIYSRDIG [SNF2] | 3.12 ± 0.14 | 3.37 ± 0.13 | 2.96 ± 0.084 | 3.21 ± 0.17
5 | ELNIIPRDLLRVIIQEL [PRP28] | 1.15 ± 0.062 | 1.4 ± 0.061 | 1.38 ± 0.21 | 1.15 ± 0.045
6 | VINKLDRLILDLKLPPM [SNU114] | 2.05 ± 0.12 | 1.31 ± 0.12 | 1.06 ± 0.23 | 2.14 ± 0.1
7 | RLDILDPALLRPGRIDR [RPT6] | 2.79 ± 0.22 |  | 2.65 ± 0.12 | 
8 | TFHHHGRQTVLIKDNSA [SRB2] | 1.92 ± 0.25 | 2.52 ± 0.21 |  | 2.56 ± 0.24
9 | RKIKRLEKFLQGRDTSK [SRP72] | 2.79 ± 0.1 | 2.16 ± 0.059 | 2.14 ± 0.12 | 2.76 ± 0.048
10 | YGRKSFRNNKNDNYSSD [REC8] | 3.28 ± 0.096 | 3.22 ± 0.068 | 3.32 ± 0.05 | 3.14 ± 0.059
11 | YAVKAVENGTTSIGIKC [PRE10] | 2.04 ± 0.11 | 2.02 ± 0.076 | 1.36 ± 0.21 | 2.77 ± 0.19
12 | SEYDRGVSTFSPEGRLF [PUP2] | 3.43 ± 0.1 | 3.28 ± 0.1 | 3.32 ± 0.096 | 3.31 ± 0.065
13 | MTAQQAPKWYPSEDVAA [RPL6B] | 1.77 ± 0.11 | 1.7 ± 0.074 | 1.84 ± 0.091 | 1.71 ± 0.11
14 | AKLNHLKKLEKFMELER [SWI3] | 2.9 ± 0.064 | 2.83 ± 0.069 | 3.03 ± 0.054 | 2.66 ± 0.058
15 | KLYFQLFLNTGCLSVLY [SRP68] | 1.47 ± 0.038 | 1.19 ± 0.041 | 1.19 ± 0.1 | 1.21 ± 0.043
16 | VDPEQEAHNKALNQFKR [RPT4] | 3.37 ± 0.19 | 3.26 ± 0.13 | 3.41 ± 0.11 | 3.02 ± 0.14
17 | AEEVRNFALTTLIDLVK [ECM29] | 2.59 ± 0.086 | 1.9 ± 0.075 | 1.78 ± 0.073 | 2 ± 0.059
18 | FVPVPALSAYHKVQTKL [RPS7B] | 2.42 ± 0.046 | 2.52 ± 0.046 | 2.27 ± 0.057 | 2.55 ± 0.032
19 | EKPLTPLKYTKLIAAAE [SNF6] | 1.25 ± 0.23 | 1.27 ± 0.12 | 1.22 ± 0.21 | 1.15 ± 0.2
20 | TATASLGVIHKGNLLEG [RPN2] | 2.96 ± 0.16 | 1.84 ± 0.082 | 1.98 ± 0.16 | 2.72 ± 0.081
21 | VGPSEQNFAEEDDSSNS [REC8] | 2.56 ± 0.15 | 2.62 ± 0.11 |  | 
22 | GPNNFIWPAEDALRRGM [MED4] | 3.35 ± 0.13 | 3.15 ± 0.11 | 3.03 ± 0.079 | 3.27 ± 0.08
23 | ARLPPRATNCRKRKCGH [RPL40A] | 2.98 ± 0.094 | 3.3 ± 0.15 | 3.2 ± 0.1 | 3.14 ± 0.11
24 | PQTPLVEPVTERTKLQE [SNU114] | 3.29 ± 0.15 | 3.07 ± 0.18 | 3.08 ± 0.1 | 3.31 ± 0.13
25 | TEKLKISPESVFGTLGE [SMC3] | 1.99 ± 0.087 | 2.34 ± 0.066 | 2.09 ± 0.095 | 1.99 ± 0.032
26 | IFTDFLPSSNGSSRIIA [RRP42] | 3.15 ± 0.085 | 2.89 ± 0.084 | 3.07 ± 0.073 | 2.8 ± 0.069

Row | Sequence | protein stability index (doa10∆) | protein stability index (pdr5∆) | protein stability index (san1∆) | protein stability index (ubr1∆)
27 | KRNKYAAMLTSENAREI [RRP45] | 3.04 ± 0.063 | 3.1 ± 0.063 | 3.08 ± 0.057 | 2.96 ± 0.043
28 | ERSLRQKYNLLHVLPTL [SNM1] | 1.22 ± 0.07 | 1.3 ± 0.13 | 2.03 ± 0.28 | 1.35 ± 0.17
29 | DFIGHNSNINTLTASPD [ASC1] | 2.83 ± 0.075 | 2.87 ± 0.052 | 2.87 ± 0.068 | 2.96 ± 0.039
30 | RVLEIQTSLVRMFEKNV [SKI6] | 3.35 ± 0.094 | 3.07 ± 0.065 | 2.51 ± 0.078 | 3.12 ± 0.047
31 | ISENTFPNGFKNFENGP [RPC34] | 2.96 ± 0.081 | 3.03 ± 0.069 | 2.91 ± 0.052 | 2.57 ± 0.034
32 | ASSKAVTRGISVLKDSD [PRE1] | 2.4 ± 0.058 | 2.76 ± 0.05 | 2.89 ± 0.051 | 2.67 ± 0.052
33 | KDFTNKNLIQLISLKLL [SRB8] | 1.28 ± 0.042 | 1.49 ± 0.035 | 1.66 ± 0.067 | 1.91 ± 0.032
34 | TKRLGTPESVKPANASH [RGR1] | 2.37 ± 0.08 | 2.63 ± 0.077 | 2.26 ± 0.11 | 2.76 ± 0.095
35 | DKARRLGYKAKQGFVIY [RPL15A] | 3.24 ± 0.16 | 3.33 ± 0.23 | 2.91 ± 0.14 | 3.28 ± 0.25
36 | AQAQAQAQAQAQAQAQA [GAL11] | 2.95 ± 0.03 | 3.23 ± 0.035 | 2.98 ± 0.026 | 3.09 ± 0.033
37 | SQEREFSLLVKAEIPPE [SIN4] | 3.04 ± 0.1 | 2.98 ± 0.072 | 2.96 ± 0.073 | 2.83 ± 0.061
38 | NENDLKTYNCLHEKYLT [SMC1] | 2.2 ± 0.072 | 2.68 ± 0.053 | 2.11 ± 0.083 | 3.02 ± 0.056
39 | STGDYTFTIQLLKLTKV [YML103C/NUP188] | 1.58 ± 0.075 | 2.92 ± 0.13 | 2.16 ± 0.12 | 2.51 ± 0.11
40 | ILMQQQMMARMAQTATQ [SRP54] | 2.34 ± 0.14 | 2.22 ± 0.1 | 2.08 ± 0.12 | 2.63 ± 0.1
41 | SVVSQIEKGSTFGINLI [FAS1] | 3.09 ± 0.2 | 3.06 ± 0.11 | 3 ± 0.08 | 3.26 ± 0.076
42 | VVNITHHELVPKHIRLS [RPB5] | 2.52 ± 0.065 | 2.89 ± 0.062 | 3.01 ± 0.064 | 3.01 ± 0.056
43 | NTFTWNHSLQHQNESSA [RPN4] | 3.08 ± 0.056 | 3.19 ± 0.055 | 3.18 ± 0.058 | 3.17 ± 0.037
44 | YILEAEAAAKEKDELDN [QCR7] | 3.1 ± 0.24 | 3.11 ± 0.11 | 3.1 ± 0.14 | 3.18 ± 0.079
45 | EIHPITFPPEVLARISP [RRP43] | 2.05 ± 0.041 | 2.57 ± 0.054 | 2.4 ± 0.049 | 1.94 ± 0.041
46 | TSTKDKNSSTSNTEPIP [MED1] | 3.17 ± 0.058 | 3.27 ± 0.061 | 3.21 ± 0.046 | 3.16 ± 0.041
47 | PFFKYIDDANVTRKQED [RPC37] | 2.55 ± 0.091 | 2.12 ± 0.064 | 2.34 ± 0.083 | 2.52 ± 0.061
48 | ANLRVLNSYWVNQDSTY [RPL15A] | 2.62 ± 0.072 | 2.23 ± 0.067 | 2.78 ± 0.058 | 2.37 ± 0.064
49 | KLDTEVKNTNANPVVAT [SWP82] | 1.94 ± 0.069 | 2.38 ± 0.082 | 2.54 ± 0.08 | 1.86 ± 0.05
50 | YMEPFDLDLNEQVRKMY [NSL1] | 2.88 ± 0.1 | 2.36 ± 0.079 | 3.1 ± 0.068 | 2.46 ± 0.052
51 | QKSSKENIENEEYVINL [ECM29] | 3.02 ± 0.1 | 3.32 ± 0.086 | 2.75 ± 0.082 | 3.02 ± 0.082

Source: the supplement of paper PMC9732359
